Measurements from patent US20260242419A1, “A CYCLIC PEPTIDE FOR TRAPPING INTERLEUKIN-1 BETA” (Merck Sharp & Dohme LLC, priority 2023, published 2026).
Starred links: 1 amine or outer side, 2 acyl side, 3 side chain; linkers in the order of their positions; H or OH if unused. Non-standard residues stand in square brackets, D forms with d. Primed or numbered codes have the meaning given here. AEFBz4Piperaz = (S)-2-amino-3-(4-(2-(4-(piperazin-1-yl)benzamido)ethoxy)phenyl)propanoic acid, O=C(NCCOc1ccc(C[C@H](N[*:1])C(=O)[*:2])cc1)c1ccc(N2CCN([*:3])CC2)cc1; AEF4AcPip4c = (S)-3-(4-(2-(1-acetylpiperidine-4-carboxamido)ethoxy)phenyl)-2-aminopropanoic acid, CC(=O)N1CCC(C(=O)NCCOc2ccc(C[C@H](N[*:1])C(=O)[*:2])cc2)CC1; AEF2PyrimCO = (S)-2-amino-3-(4-(2-(pyrimidine-2-carboxamido)ethoxy)phenyl)propanoic acid, O=C(NCCOc1ccc(C[C@H](N[*:1])C(=O)[*:2])cc1)c1ncccn1; AEF4PyrimCO = (S)-2-amino-3-(4-(2-(pyrimidine-4-carboxamido)ethoxy)phenyl)propanoic acid, O=C(NCCOc1ccc(C[C@H](N[*:1])C(=O)[*:2])cc1)c1ccncn1; AEFPyrzCO = (S)-2-amino-3-(4-(2-(pyrazine-2-carboxamido)ethoxy)phenyl)propanoic acid, O=C(NCCOc1ccc(C[C@H](N[*:1])C(=O)[*:2])cc1)c1cnccn1; AEFcHex = (S)-2-amino-3-(4-(2-(cyclohexanecarboxamido)ethoxy)phenyl)propanoic acid, O=C(NCCOc1ccc(C[C@H](N[*:1])C(=O)[*:2])cc1)C1CCCCC1; AEF4PyrCO = (S)-2-amino-3-(4-(2-(isonicotinamido)ethoxy)phenyl)propanoic acid, O=C(NCCOc1ccc(C[C@H](N[*:1])C(=O)[*:2])cc1)c1ccncc1; AEFPiv = (S)-2-amino-3-(4-(2-pivalamidoethoxy)phenyl)propanoic acid, CC(C)(C)C(=O)NCCOc1ccc(C[C@H](N[*:1])C(=O)[*:2])cc1; Bip4CONMe2″ = 4'-(dimethylcarbamoyl)biphenylalanine, CN(C)C(=O)c1ccc(-c2ccc(C[C@H](N[*:1])C(=O)[*:2])cc2)cc1; OrnMe3 = ornithine with side-chain trimethylammonium, C[N+](C)(C)CCC[C@H](N[*:1])C(=O)[*:2]; Trp(4-Cl)(βS-Me) = C[C@@H](c1c[nH]c2cccc(Cl)c12)[C@H](N)C(=O)O; dPro(4R-(4-pyridylmethyl)) = O=C(O)[C@H]1C[C@@H](Cc2ccncc2)CN1; Trp(βS-Me,4-F) = C[C@@H](c1c[nH]c2cccc(F)c12)[C@H](N)C(=O)O; Bip(4'-CONH2) = NC(=O)c1ccc(-c2ccc(C[C@H](N)C(=O)O)cc2)cc1; Bip(4'-COOH) = N[C@@H](Cc1ccc(-c2ccc(C(=O)O)cc2)cc1)C(=O)O; dPro(4R-Bzl(4-F)) = O=C(O)[C@H]1C[C@@H](Cc2ccc(F)cc2)CN1; dPro(3S-(4-F-Bn)) = O=C(O)[C@@H]1NCC[C@@H]1Cc1ccc(F)cc1; 1Nal(3S-Me) = C[C@@H](c1cccc2ccccc12)[C@H](N)C(=O)O; Ala(pyrimidin-5-yl) = N[C@@H](Cc1cncnc1)C(=O)O; Phe(4-COOH) = N[C@@H](Cc1ccc(C(=O)O)cc1)C(=O)O; Bip = N[C@@H](Cc1ccc(-c2ccccc2)cc1)C(=O)O; Lys(Me3) = C[N+](C)(C)CCCC[C@H](N)C(=O)O; Phe(4-Br) = N[C@@H](Cc1ccc(Br)cc1)C(=O)O; Pro(cis-4-F) = O=C(O)[C@@H]1C[C@H](F)CN1; Ala(4-THP) = N[C@@H](CC1CCOCC1)C(=O)O; d(αMeD) = C[C@@](N)(CC(=O)O)C(=O)O; 4Pal = N[C@@H](Cc1ccncc1)C(=O)O; aThr = C[C@H](O)[C@H](N)C(=O)O; Dab = NCC[C@H](N)C(=O)O; Aib = CC(C)(N)C(=O)O

biological target: Recombinant human IL-1β (BioLegend 579404) (human, UniProt P01584 117-269); experiment: cell-based or functional assay

| Binder | MRC5 IC50 [nM] |
| --- | --- |
| cyclo([AEF4PyrCO][4Pal][Phe(4-COOH)]G[Pro(cis-4-F)][Trp(βS-Me,4-F)][Aib]SW[Aib][Ala(pyrimidin-5-yl)]Q[Dab]G[dPro(4R-(4-pyridylmethyl))]) (ring closure inferred; not fully specified (N-terminus); printed as cyclic, AEF4PyrCO-4Pal-Phe4COOH-G-Proc4F-SbMeW4F-Aib-S-W-Aib-PyrimAla-Q-Dab-G-dProc4CH24Pal) [SEQ ID NO 307] | 0.018 |
| cyclo([AEFBz4Piperaz][4Pal][Phe(4-COOH)]G[Pro(cis-4-F)][Trp(βS-Me,4-F)][Aib]SW[Aib][Ala(pyrimidin-5-yl)]Q[Dab]G[dPro(4R-(4-pyridylmethyl))]) (ring closure inferred; not fully specified (N-terminus); printed as cyclic, AEFBz4Piperaz-4Pal-Phe4COOH-G-Proc4F-SbMeW4F-Aib-S-W-Aib-PyrimAla-Q-Dab-G-dProc4CH24Pal) [SEQ ID NO 306] | 0.02 |
| cyclo([AEFPiv][4Pal][Phe(4-COOH)]G[Pro(cis-4-F)][Trp(βS-Me,4-F)][Aib]SW[Aib][Ala(pyrimidin-5-yl)]Q[Dab]G[dPro(4R-(4-pyridylmethyl))]) (ring closure inferred; not fully specified (N-terminus)) [SEQ ID NO 300] | 0.013 |
| cyclo([Bip][4Pal][Phe(4-COOH)]G[Pro(cis-4-F)][Trp(βS-Me,4-F)][Aib]SW[d(αMeD)][Ala(4-THP)]Q[Dab]G[dPro(4R-(4-pyridylmethyl))]) (ring closure inferred; not fully specified (N-terminus); printed as cyclic, Bip-4Pal-Phe4COOH-G-Proc4F-SbMeW4F-Aib-S-W-daMeD-AlaTHP4-Q-Dab-G-dProc4CH24Pal) [SEQ ID NO 294] | 0.014 |
| cyclo([Bip(4'-COOH)][4Pal][Phe(4-COOH)]G[Pro(cis-4-F)][Trp(βS-Me,4-F)][Aib]SW[Aib][Lys(Me3)]Q[Dab]G[dPro(4R-Bzl(4-F))]) (ring closure inferred; not fully specified (N-terminus); printed as cyclic, Bip4CO2H-4Pal-Phe4COOH-G-Proc4F-sbMeW4F-Aib-S-W-Aib-LysMe3-Q-Dab-G-dProc4Bn4F) [SEQ ID NO 298] | 0.015 |
| cyclo([Bip][4Pal][Phe(4-COOH)]G[Pro(cis-4-F)][Trp(4-Cl)(βS-Me)][Aib]SW[d(αMeD)][Ala(pyrimidin-5-yl)]Q[Dab]G[dPro(4R-(4-pyridylmethyl))]) (ring closure inferred; not fully specified (N-terminus); printed as cyclic, Bip-4Pal-Phe4COOH-G-Proc4F-SbMeW4Cl-Aib-S-W-daMeD-PyrimAla-Q-Dab-G-dProc4CH24Pal) [SEQ ID NO 292] | 0.015 |
| cyclo([AEF4PyrimCO][4Pal][Phe(4-COOH)]G[Pro(cis-4-F)][Trp(βS-Me,4-F)][Aib]SW[Aib][Ala(pyrimidin-5-yl)]Q[Dab]G[dPro(4R-(4-pyridylmethyl))]) (ring closure inferred; not fully specified (N-terminus); printed as cyclic, AEF4PyrimCO-4Pal-Phe4COOH-G-Proc4F-SbMeW4F-Aib-S-W-Aib-PyrimAla-Q-Dab-G-dProc4CH24Pal) [SEQ ID NO 305] | 0.016 |
| cyclo([Bip(4'-CONH2)][4Pal][Phe(4-COOH)]G[Pro(cis-4-F)][Trp(βS-Me,4-F)][Aib]SW[d(αMeD)][Ala(4-THP)]Q[Dab]G[dPro(4R-(4-pyridylmethyl))]) (ring closure inferred; not fully specified (N-terminus); printed as cyclic, Bip4CONH2-4Pal-Phe4COOH-G-Proc4F-SbMeW4F-Aib-S-W-daMeD-AlaTHP4-Q-Dab-G-dProc4CH24Pal) [SEQ ID NO 296] | 0.013 |
| cyclo([Bip(4'-COOH)][4Pal][Phe(4-COOH)]G[Pro(cis-4-F)][Trp(βS-Me,4-F)][Aib]SW[Aib][OrnMe3]Q[Dab]G[dPro(4R-Bzl(4-F))]) (ring closure inferred; not fully specified (N-terminus); printed as cyclic, Bip4CO2H-4Pal-Phe4COOH-G-Proc4F-sbMeW4F-Aib-S-W-Aib-OrnMe3-Q-Dab-G-dProc4Bn4F) [SEQ ID NO 297] | 0.022 |
| cyclo([AEFPyrzCO][4Pal][Phe(4-COOH)]G[Pro(cis-4-F)][Trp(βS-Me,4-F)][Aib]SW[Aib][Ala(pyrimidin-5-yl)]Q[Dab]G[dPro(4R-(4-pyridylmethyl))]) (ring closure inferred; not fully specified (N-terminus); printed as cyclic, AEFPyrzCO-4Pal-Phe4COOH-G-Proc4F-SbMeW4F-Aib-S-W-Aib-PyrimAla-Q-Dab-G-dProc4CH24Pal) [SEQ ID NO 303] | 0.016 |
| cyclo([Bip][4Pal][Phe(4-COOH)]G[Pro(cis-4-F)][1Nal(3S-Me)][Aib]SW[d(αMeD)][Ala(pyrimidin-5-yl)]Q[Dab]G[dPro(4R-(4-pyridylmethyl))]) (ring closure inferred) [SEQ ID NO 291] | 0.018 |
| cyclo([Bip][4Pal][Phe(4-COOH)]G[Pro(cis-4-F)][1Nal(3S-Me)][Aib]SW[d(αMeD)][Ala(4-THP)]Q[Dab]G[dPro(4R-(4-pyridylmethyl))]) (ring closure inferred) [SEQ ID NO 290] | 0.018 |
| cyclo([Bip][4Pal][Phe(4-COOH)]G[Pro(cis-4-F)][1Nal(3S-Me)][Aib]SW[d(αMeD)][aThr]Q[Dab]G[dPro(4R-(4-pyridylmethyl))]) (ring closure inferred) [SEQ ID NO 288] | 0.019 |
| cyclo([Bip][4Pal][Phe(4-COOH)]G[Pro(cis-4-F)][Trp(βS-Me,4-F)][Aib]SW[d(αMeD)][aThr]Q[Dab]G[dPro(4R-(4-pyridylmethyl))]) (ring closure inferred; not fully specified (N-terminus); printed as cyclic, Bip-4Pal-Phe4COOH-G-Proc4F-SbMeW4F-Aib-S-W-daMeD-alT-Q-Dab-G-dProc4CH24Pal) [SEQ ID NO 293] | 0.01 |
| cyclo([AEF4AcPip4c][4Pal][Phe(4-COOH)]G[Pro(cis-4-F)][Trp(βS-Me,4-F)][Aib]SW[Aib][Ala(pyrimidin-5-yl)]Q[Dab]G[dPro(4R-(4-pyridylmethyl))]) (ring closure inferred; not fully specified (N-terminus); printed as cyclic, AEF4AcPip4c-4Pal-Phe4COOH-G-Proc4F-SbMeW4F-Aib-S-W-Aib-PyrimAla-Q-Dab-G-dProc4CH24Pal) [SEQ ID NO 302] | 0.017 |
| cyclo([Bip][4Pal][Phe(4-COOH)]G[Pro(cis-4-F)][Trp(4-Cl)(βS-Me)][Aib]SW[d(αMeD)][aThr]Q[Dab]G[dPro(4R-(4-pyridylmethyl))]) (ring closure inferred) [SEQ ID NO 289] | 0.015 |
| cyclo([AEF2PyrimCO][4Pal][Phe(4-COOH)]G[Pro(cis-4-F)][Trp(βS-Me,4-F)][Aib]SW[Aib][Ala(pyrimidin-5-yl)]Q[Dab]G[dPro(4R-(4-pyridylmethyl))]) (ring closure inferred; not fully specified (N-terminus); printed as cyclic, AEF2PyrimCO-4Pal-Phe4COOH-G-Proc4F-SbMeW4F-Aib-S-W-Aib-PyrimAla-Q-Dab-G-dProc4CH24Pal) [SEQ ID NO 304] | 0.014 |
| cyclo([Phe(4-Br)][4Pal][Phe(4-COOH)]G[Pro(cis-4-F)][Trp(βS-Me,4-F)][Aib]SW[d(αMeD)][Ala(pyrimidin-5-yl)]Q[Dab]G[dPro(3S-(4-F-Bn))]) (ring closure inferred; not fully specified (N-terminus); printed as cyclic, Phe4Br-4Pal-Phe4COOH-G-Proc4F-SbMeW4F-Aib-S-W-daMeD-PyrimAla-Q-Dab-G-dProc3Bn4F) [SEQ ID NO 299] | 0.012 |
| cyclo([Bip4CONMe2″][4Pal][Phe(4-COOH)]G[Pro(cis-4-F)][Trp(βS-Me,4-F)][Aib]SW[d(αMeD)][Ala(4-THP)]Q[Dab]G[dPro(4R-(4-pyridylmethyl))]) (ring closure inferred; not fully specified (N-terminus); printed as cyclic, Bip4CONMe2-4Pal-Phe4COOH-G-Proc4F-SbMeW4F-Aib-S-W-daMeD-AlaTHP4-Q-Dab-G-dProc4CH24Pal) [SEQ ID NO 295] | 0.012 |
| cyclo([AEFcHex][4Pal][Phe(4-COOH)]G[Pro(cis-4-F)][Trp(βS-Me,4-F)][Aib]SW[Aib][Ala(pyrimidin-5-yl)]Q[Dab]G[dPro(4R-(4-pyridylmethyl))]) (ring closure inferred; not fully specified (N-terminus)) [SEQ ID NO 301] | 0.017 |
